From patent publication US7364866B2, “Drosophila G protein coupled receptors, nucleic acids, and methods related to the same” (Pharmacia & Upjohn Company, priority 1999, dated 2008)
Non-standard residues stand in square brackets, D forms with d. No end group written: not given here. sY = N[C@@H](Cc1ccc(OS(=O)(=O)O)cc1)C(=O)O

Assays:
DmGPCR6a = molecular target: T1, DmGPCR6a (Drosophila melanogaster, UniProt P25931, I47L); assay: [35S]GTPγS binding assay, membranes of transfected CHO cells; format: biochemical; settings: peptide tested at 5 μM
T1 construct: expressed in transfected cells; host or cells: CHO cells, transient
Protocol: (§1) The transfected cells were washed once with ice-cold Dulbecco's phosphate buffered saline (PBS), 5 ml per 10 cm plate, and scraped into 5 ml of the same buffer. Cell suspensions from multiple plates were combined and centrifuged at 500×g for 10 min at 4° C. The cell pellet was reconstituted in ice-cold TEE (25 mM TRIS, 5 mM EGTA, 5 mM EDTA). Convenient aliquots were snap-frozen in liquid nitrogen and stored at −70° C. After thawing, the cells were homogenized and centrifuged at 4° C., 500×g for 5 minutes to pellet nuclei and unbroken cells. The supernatant was centrifuged at 47,000×g for 30 minutes at 4° C. […] Membrane protein concentration was determined using the BCA Protein Assay Reagent from Pierce (Rockford, Ill.) and BSA as standard. […]
(§2) Ligand-induced stimulation of [^35S]GTPγS binding was expressed as fold increase over the basal activity with no ligand added. Each treatment was run either in triplicate, or, on occasion, in duplicate, and the binding (cpm) was calculated as means +/− standard deviations. Dose-response curves for the receptor/ligand systems were analyzed using a non-linear least square SAS model, y=Bmax X/(Kd+X). Other dose-response curves were analyzed using Prism (GraphPad Software, Inc. San Diego, Calif.) and the following equation y=Bottom+(Top−Bottom)/(1+10^LogEC50-X). […]

Dmgpcr6bL = molecular target: T2, Dmgpcr6bL (Drosophila melanogaster, UniProt P25931, I47L); assay: calcium mobilization assay (FLIPR); format: cell-based; settings: FaRPs tested at 10 μM, active sequences listed in Table 7 (6aL and 6bL)
T2 construct: A new 5′ PCR primer was designed that incorporated the PnuFlyPep15731 start codon; expressed in transfected cells; host or cells: CHO-K1 or CHO-10001A, transient
Protocol: (§3) Changes in intracellular calcium levels are another recognized indicator of G protein-coupled receptor activity, and such assays can be employed to screen for modulators of DmGPCR activity. For example, CHO cells stably transfected with a DmGPCR expression vector are plated at a density of 4×10^4 cells/well in Packard black-walled, 96-well plates specially designed to discriminate fluorescence signals emanating from the various wells on the plate. The cells are incubated for 60 minutes at 37° C. in modified Dulbecco's PBS (D-PBS) containing 36 mg/L pyruvate and 1 g/L glucose and one of four calcium indicator dyes (Fluo-3™ AM, Fluo-4™ AM, Calcium Green™-1 AM, or Oregon Green™ 488 BAPTA-1 AM), each at a concentration of 4 μM. […]
(§4) A calcium response is initiated by the addition of one or more candidate receptor agonist compounds, calcium ionophore A23187 (10 μM; positive control), or ATP (4 μM; positive control). Fluorescence is measured by Molecular Device's FLIPR with an argon laser (excitation at 488 nm). […] Basal fluorescence of cells was measured for 20 seconds prior to addition of candidate agonist, ATP, or A23187, and the basal fluorescence level was subtracted from the response signal. The calcium signal is measured for approximately 200 seconds, taking readings every two seconds. […]

Dmgpcr6aL = molecular target: T3, Dmgpcr6aL (Drosophila melanogaster, UniProt P25931, I47L); assay: calcium mobilization assay (FLIPR); format: cell-based; settings: FaRPs tested at 10 μM, active sequences listed in Table 7 (6aL and 6bL)
T3 construct: A new 5′ PCR primer was designed that incorporated the PnuFlyPep15731 start codon; expressed in transfected cells; host or cells: CHO-K1 or CHO-10001A, transient
Protocol: as §3, §4

DmGPCR9 [1] = assay: calcium mobilization assay (FLIPR); format: cell-based, Drosophila melanogaster; settings: given in words
Protocol: as §3, §4

DmGPCR9 [2] = assay: [35S]GTPγS binding assay, membranes of transfected CHO cells; format: biochemical, Drosophila melanogaster; settings: membranes from CHO cells transfected with DmGPCR9
Protocol: as §1, §2

Chain of DmGPCR9 (as listed by the source): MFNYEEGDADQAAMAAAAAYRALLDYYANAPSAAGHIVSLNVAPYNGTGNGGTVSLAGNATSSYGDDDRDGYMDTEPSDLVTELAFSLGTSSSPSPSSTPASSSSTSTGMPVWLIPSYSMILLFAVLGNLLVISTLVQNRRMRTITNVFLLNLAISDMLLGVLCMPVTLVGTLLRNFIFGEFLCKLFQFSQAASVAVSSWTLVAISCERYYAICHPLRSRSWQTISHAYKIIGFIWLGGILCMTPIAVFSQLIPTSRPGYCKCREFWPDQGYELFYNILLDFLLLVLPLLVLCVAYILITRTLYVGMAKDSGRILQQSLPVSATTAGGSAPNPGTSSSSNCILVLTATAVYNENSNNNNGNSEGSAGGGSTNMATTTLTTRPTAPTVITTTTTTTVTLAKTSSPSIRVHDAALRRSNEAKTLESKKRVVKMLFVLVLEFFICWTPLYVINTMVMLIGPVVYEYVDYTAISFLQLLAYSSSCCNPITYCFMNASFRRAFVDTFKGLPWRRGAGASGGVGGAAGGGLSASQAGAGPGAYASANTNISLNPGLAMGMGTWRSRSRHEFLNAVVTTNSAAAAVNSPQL
T3 sequence (P25931 whole entry I47L): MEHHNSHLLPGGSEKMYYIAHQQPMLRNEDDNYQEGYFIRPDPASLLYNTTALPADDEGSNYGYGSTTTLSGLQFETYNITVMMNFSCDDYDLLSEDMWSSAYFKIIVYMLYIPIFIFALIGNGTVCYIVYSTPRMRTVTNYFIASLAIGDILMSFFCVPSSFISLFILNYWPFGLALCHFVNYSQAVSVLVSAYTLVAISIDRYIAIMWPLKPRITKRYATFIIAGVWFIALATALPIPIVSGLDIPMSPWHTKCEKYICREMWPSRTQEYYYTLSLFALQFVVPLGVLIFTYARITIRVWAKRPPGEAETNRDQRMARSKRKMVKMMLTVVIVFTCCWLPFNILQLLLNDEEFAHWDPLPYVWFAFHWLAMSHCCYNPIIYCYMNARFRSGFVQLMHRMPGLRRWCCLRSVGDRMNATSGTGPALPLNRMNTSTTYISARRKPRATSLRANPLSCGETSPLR
T2 sequence (P25931 other isoform, or with tags, fused parts or gaps I47L): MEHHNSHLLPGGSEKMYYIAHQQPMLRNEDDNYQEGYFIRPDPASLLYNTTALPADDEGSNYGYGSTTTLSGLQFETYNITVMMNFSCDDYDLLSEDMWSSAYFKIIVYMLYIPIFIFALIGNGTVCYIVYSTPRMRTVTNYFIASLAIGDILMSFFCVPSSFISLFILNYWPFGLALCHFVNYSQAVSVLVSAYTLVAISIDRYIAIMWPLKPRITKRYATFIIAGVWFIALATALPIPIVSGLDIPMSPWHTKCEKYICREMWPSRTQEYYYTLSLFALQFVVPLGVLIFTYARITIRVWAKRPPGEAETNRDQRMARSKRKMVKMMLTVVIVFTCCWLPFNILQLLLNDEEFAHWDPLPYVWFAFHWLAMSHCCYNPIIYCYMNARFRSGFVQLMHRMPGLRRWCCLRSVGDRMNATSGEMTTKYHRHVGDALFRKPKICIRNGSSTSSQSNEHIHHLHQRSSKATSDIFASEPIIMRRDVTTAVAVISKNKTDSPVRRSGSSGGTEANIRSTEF
T1 sequence (P25931 16-464 I47L): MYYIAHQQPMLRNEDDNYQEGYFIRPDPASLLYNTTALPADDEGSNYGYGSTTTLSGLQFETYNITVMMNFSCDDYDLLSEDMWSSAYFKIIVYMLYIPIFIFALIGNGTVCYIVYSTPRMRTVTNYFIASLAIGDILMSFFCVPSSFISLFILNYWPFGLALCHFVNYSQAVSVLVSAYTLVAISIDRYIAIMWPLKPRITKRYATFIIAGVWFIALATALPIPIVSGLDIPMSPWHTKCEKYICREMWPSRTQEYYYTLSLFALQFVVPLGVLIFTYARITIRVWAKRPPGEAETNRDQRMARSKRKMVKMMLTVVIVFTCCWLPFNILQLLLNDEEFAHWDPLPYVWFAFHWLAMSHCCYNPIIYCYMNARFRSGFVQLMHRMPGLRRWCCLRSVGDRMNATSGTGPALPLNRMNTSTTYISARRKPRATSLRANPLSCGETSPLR

**Q.** How did the “increase in GTPγS binding above the basal” value (DmGPCR6a) turn out when FLFQPQRF-NH2 [NPFF] was run?
**A.** The value was 4 fold.

**Q.** What about the “Ca+2 responses (FLIPR)” value (Dmgpcr6bL) of the same substance?
**A.** Its value is “recognized”.

**Q.** And the “Ca+2 responses (FLIPR)” value (Dmgpcr6aL)?
**A.** The value was “recognized”.

**Q.** Which “EC50, calcium mobilization assay” value (DmGPCR9 [1]) does the source give for “FDDY(SO3H)GHLRF-NH2 (FDD[sY]GHLRF-NH2; N-terminus assumed; SMILES CC(C)C[C@H](NC(=O)[C@H](Cc1c[nH]cn1)NC(=O)CNC(=O)[C@H](Cc1ccc(OS(=O)(=O)O)cc1)NC(=O)[C@H](CC(=O)O)NC(=O)[C@H](CC(=O)O)NC(=O)[C@@H](N)Cc1ccccc1)C(=O)N[C@@H](CCCNC(=N)N)C(=O)N[C@@H](Cc1ccccc1)C(N)=O)” here?
**A.** The value was “low nanomolar range”.

**Q.** And the GTPγS responses (DmGPCR9 [2])?
**A.** The GTPγS responses was “no GTPγS responses”.
